{"source": "IntAct's records for PubMed 16418270", "parents": {"B1": {"name": "Ribonuclease P protein component 2 (Pyrococcus furiosus), Q8U151 (parent)", "chain": "MSERPKTLPPTLRDKKRYIAFKVISENQFNKDEIKEAIWNACLRTLGELGTAKAKPWLIKFDETTQTGIIRCDRNHVYDVIFSLTLVSDINGNKAIIKVLGVSGTIKRLKRKFLSQFGWR", "partner": "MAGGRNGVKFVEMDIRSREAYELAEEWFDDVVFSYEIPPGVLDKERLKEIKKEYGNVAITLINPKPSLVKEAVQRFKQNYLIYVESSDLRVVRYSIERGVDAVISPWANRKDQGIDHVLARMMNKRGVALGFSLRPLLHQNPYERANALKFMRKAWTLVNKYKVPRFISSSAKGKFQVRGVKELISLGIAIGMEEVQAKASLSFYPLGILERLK"}}}
{"variants_of": "B1", "settings": "with rnp3_pyrfu rnp3, Q8TZS0"}
{"variant": "C72S", "effect of a mutation on the interaction": "decreasing interaction"}
